What was measured:
DARPin A5 [1] = experiment: ITC; target protein titrated into a constant concentration of DARPin, 25 injections of 10 µl; 50 mM HEPES pH 7.4, 150 mM NaCl, 0.5 mM TCEP; 25 °C; AB hetero-association model (SEDPHAT)
DARPin A5 [2] = experiment: ITC; target proteins titrated to constant concentrations of DARPin; 50 mM HEPES, pH 7.4, 150 mM NaCl, 0.5 mM TCEP; AB hetero-association model (SEDPHAT); temperatures not shown
[3] = target: Alexa 488 labeled DARPin C14; experiment: fluorescence polarisation; fluorescence anisotropy; 500 nM Alexa 488 labeled DARPin constant, p63 isoform 0-10 µM; 50 mM Tris pH 8, 150 mM NaCl, 0.5 mM TCEP, 0.1 % Tween-20; the sheet says 20 °C, the methods 16 °C
[4] = target: Alexa 488 labeled DARPin A5; experiment: as above
[5] = target: Alexa 488 labeled DARPin 8F1; experiment: as above

| Binder | Ka (DARPin A5 [1]) | Kd (DARPin A5 [2]) | Kd [3] | Kd [4] | Kd [5] |
| --- | --- | --- | --- | --- | --- |
| p63 Sterile α-motif (SAM) domain (domain or fragment) PPYPTDCSIVSFLARLGCSSCLDYFTTQGLTTIYQIEHYSMDDLASLKIPEQFRHAIWKGILDHRQL | 6.18e+07 M⁻¹ | 0.016 µM | – | – | – |
| ΔNp63α (natural protein) MLYLENNAQTQFSEPQYTNLGLLNSMDQQIQNGSSSTSPYNTDHAQNSVTAPSPYAQPSSTFDALSPSPAIPSNTDYPGPHSFDVSFQQSSTAKSATWTYSTELKKLYCQIAKTCPIQIKVMTPPPQGAVIRAMPVYKKAEHVTEVVKRCPNHELSREFNEGQIAPPSHLIRVEGNSHAQYVEDPITGRQSVLVPYEPPQVGTEFTTVLYNFMCNSSCVGGMNRRPILIIVTLETRDGQVLGRRCFEARICACPGRDRKADEDSIRKQQVSDSTKNGDGTKRPFRQNTHGIQMTSIKKRRSPDDELLYLPVRGRETYEMLLKIKESLELMQYLPQHTIETYRQQQQQQHQHLLQKQTSIQSPSSYGNSSPPLNKMNSMNKLPSVSQLINPQQRNALTPTTIPDGMGANIPMMGTHMPMAGDMNGLSPTQALPPPLSMPSTSHCTPPPPYPTDCSIVSFLARLGCSSCLDYFTTQGLTTIYQIEHYSMDDLASLKIPEQFRHAIWKGILDHRQLHEFSSPSHLLRTPSSASTVSVGSSETRGERVIDAVRFTLRQTISFPPRDEWNDFNFDMDARRNKQQRIKEEGE | – | – | 0.202 µM | 0.0679 µM | 0.0956 µM |

Source: PMC9751120
